Results from IntAct's records for PubMed 15601840.

B1: Structural maintenance of chromosomes protein 6 (Homo sapiens), Q96SB8 (parent)
chain: MAKRKEENFSSPKNAKRPRQEELEDFDKDGDEDECKGTTLTAAEVGIIESIHLKNFMCHSMLGPFKFGSNVNFVVGNNGSGKSAVLTALIVGLGGRAVATNRGSSLKGFVKDGQNSADISITLRNRGDDAFKASVYGNSILIQQHISIDGSRSYKLKSATGSVVSTRKEELIAILDHFNIQVDNPVSVLTQEMSKQFLQSKNEGDKYKFFMKATQLEQMKEDYSYIMETKERTKEQIHQGEERLTELKRQCVEKEERFQSIAGLSTMKTNLESLKHEMAWAVVNEIEKQLNAIRDNIKIGEDRAARLDRKMEEQQVRLNEAEQKYKDIQDKLEKISEETNARAPECMALKADVVAKKRAYNEAEVLYNRSLNEYKALKKDDEQLCKRIEELKKSTDQSLEPERLERQKKISWLKERVKAFQNQENSVNQEIEQFQQAIEKDKEEHGKIKREELDVKHALSYNQRQLKELKDSKTDRLKRFGPNVPALLEAIDDAYRQGHFTYKPVGPLGACIHLRDPELALAIESCLKGLLQAYCCHNHADERVLQALMKRFYLPGTSRPPIIVSEFRNEIYDVRHRAAYHPDFPTVLTALEIDNAVVANSLIDMRGIETVLLIKNNSVARAVMQSQKPPKNCREAFTADGDQVFAGRYYSSENTRPKFLSRDVDSEISDLENEVENKTAQILNLQQHLSALEKDIKHNEELLKRCQLHYKELKMKIRKNISEIRELENIEEHQSVDIATLEDEAQENKSKMKMVEEHMEQQKENMEHLKSLKIEAENKYDAIKFKINQLSELADPLKDELNLADSEVDNQKRGKRHYEEKQKEHLDTLNKKKRELDMKEKELEEKMSQARQICPERIEVEKSASILDKEINRLRQKIQAEHASHGDREEIMRQYQEARETYLDLDSKVRTLKKFIKLLGEIMEHRFKTYQQFRRCLTLRCKLYFDNLLSQRAYCGKMNFDHKNETLSISVQPGEGNKAAFNDMRALSGGERSFSTVCFILSLWSIAESPFRCLDEFDVYMDMVNRRIAMDLILKMADSQRFRQFILLTPQSMSSLPSSKLIRILRMSDPERGQTTLPFRPVTQEEDDDQR
B2: Structural maintenance of chromosomes protein 5 (Schizosaccharomyces pombe (strain ATCC 38366 / 972)), O13710 (parent)
chain: MDGLRPSKRRKSNPLYSDYALGSIVRIKLVNFVTYDYCELFPGPYLNLIIGPNGTGKSTIVSAICIGLGWPPKLLGRAKEAREFIKYGKNTATIEIEMKYRDDETVTITRQISQDKSSSFSINREACATSSITSLMDTFNVQLNNLCHFLPQDRVAEFAQLDPYSRLMETERAIDHEGLLPAHEKLIDLRKREREILQNKNQGQSTLNSLKDRQQALEKEVNIFKEREKIKSYIEMLGLAKMLVIYREKTNVFNQLRADKKKLKKDLKDLVEEFQPILDKGEELRSDLKLKDDTFNDYSSASMELNTSNLRARASFSNFMENEKKLYEKVNTNRTLLRNANLTLNEAQQSVKSLTERQGPRPSDNGVQDLQEKMQEVNAEKLQHENEKLESSHELGSIRTLKAQKLIDLDNIKRELSYYNDATKRKLDFMSSAPGWEDAYQTYQLLKEYESAFEAPAYGPIYMNLKCKEKGFAALIEGFFRTDTFRTFIMSNYNDYLKLMDLITSKTKYTPTIREFSSERKKKIEDFEPPCSREKLQSFGFDGYVIDFLEGPEVVLVALCHMLKIHQIPIAKRELPPASVNALNNFRLANGDPVLKTYLAGSSIHLVFRSAYGDREITRRTDPLPSRSIYFSENVEMDLVKRKEEQLNAQLSQLENLQNEERKLQEKVNEHESLLSRTNDILSTLRKERDEKLIPIHEWQQLQERIEHQTLLLRQREKVPEQFAAEIEKNEDIRKENFEALMNSVLKVKENSIKATNNFEKMLGSRLNVIEAKYKLEKHEMDANQVNARLTEVQDRLKDITDKLASAREDAMSLYGSVVDSLQTQSSDRQTAITELNEEFATSSEVDNKISIEETKLKFMNVNSYVMEQYDARKKEIEELESKMSDFDQSVEELQDEMNSIKEDWVSKLEENVQCISDRFSKGMSGMGYAGEVRLGKSDDYDKWYIDILVQFREEEGLQKLTGQRQSGGERSVSTIMYLLSLQGLAIAPFRIVDEINQGMDPRNERVVHRHIVNSVCDNAVSQYFLVTPKLLPDLTYHRNLKVLCICNGAWLPATFRTSLSTYFEKLKKSALISSS
partner: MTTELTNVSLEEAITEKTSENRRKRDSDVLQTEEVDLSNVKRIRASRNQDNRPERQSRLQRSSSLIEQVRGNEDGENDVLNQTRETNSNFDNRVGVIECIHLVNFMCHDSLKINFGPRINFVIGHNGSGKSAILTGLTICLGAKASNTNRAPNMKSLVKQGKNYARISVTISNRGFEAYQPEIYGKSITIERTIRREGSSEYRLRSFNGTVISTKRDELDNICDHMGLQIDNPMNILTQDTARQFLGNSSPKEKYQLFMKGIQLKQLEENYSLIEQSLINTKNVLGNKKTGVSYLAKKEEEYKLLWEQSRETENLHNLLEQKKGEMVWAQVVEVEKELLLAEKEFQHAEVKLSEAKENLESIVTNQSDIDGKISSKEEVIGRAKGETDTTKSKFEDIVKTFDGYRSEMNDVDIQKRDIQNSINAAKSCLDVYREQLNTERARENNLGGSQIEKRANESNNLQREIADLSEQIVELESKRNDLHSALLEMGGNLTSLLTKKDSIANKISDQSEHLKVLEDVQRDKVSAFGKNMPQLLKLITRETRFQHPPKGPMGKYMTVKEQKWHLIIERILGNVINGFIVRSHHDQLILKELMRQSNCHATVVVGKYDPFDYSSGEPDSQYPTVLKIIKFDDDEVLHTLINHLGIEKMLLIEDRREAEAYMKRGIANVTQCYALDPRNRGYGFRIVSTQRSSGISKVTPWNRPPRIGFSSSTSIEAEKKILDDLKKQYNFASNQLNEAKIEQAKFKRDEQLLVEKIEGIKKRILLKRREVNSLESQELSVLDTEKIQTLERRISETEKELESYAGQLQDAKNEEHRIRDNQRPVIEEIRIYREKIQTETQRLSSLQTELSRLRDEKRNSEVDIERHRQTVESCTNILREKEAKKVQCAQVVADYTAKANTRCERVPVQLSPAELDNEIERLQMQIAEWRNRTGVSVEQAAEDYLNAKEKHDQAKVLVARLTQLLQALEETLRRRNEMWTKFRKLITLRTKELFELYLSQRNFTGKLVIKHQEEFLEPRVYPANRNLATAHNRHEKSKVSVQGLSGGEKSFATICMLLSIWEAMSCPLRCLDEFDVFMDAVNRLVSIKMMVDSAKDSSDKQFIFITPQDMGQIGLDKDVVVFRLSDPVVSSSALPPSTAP

Variants of: B1
Settings: with smc5_human SMC5, Q8IY18
Chain of smc5_human SMC5, Q8IY18 (Q8IY18 whole entry): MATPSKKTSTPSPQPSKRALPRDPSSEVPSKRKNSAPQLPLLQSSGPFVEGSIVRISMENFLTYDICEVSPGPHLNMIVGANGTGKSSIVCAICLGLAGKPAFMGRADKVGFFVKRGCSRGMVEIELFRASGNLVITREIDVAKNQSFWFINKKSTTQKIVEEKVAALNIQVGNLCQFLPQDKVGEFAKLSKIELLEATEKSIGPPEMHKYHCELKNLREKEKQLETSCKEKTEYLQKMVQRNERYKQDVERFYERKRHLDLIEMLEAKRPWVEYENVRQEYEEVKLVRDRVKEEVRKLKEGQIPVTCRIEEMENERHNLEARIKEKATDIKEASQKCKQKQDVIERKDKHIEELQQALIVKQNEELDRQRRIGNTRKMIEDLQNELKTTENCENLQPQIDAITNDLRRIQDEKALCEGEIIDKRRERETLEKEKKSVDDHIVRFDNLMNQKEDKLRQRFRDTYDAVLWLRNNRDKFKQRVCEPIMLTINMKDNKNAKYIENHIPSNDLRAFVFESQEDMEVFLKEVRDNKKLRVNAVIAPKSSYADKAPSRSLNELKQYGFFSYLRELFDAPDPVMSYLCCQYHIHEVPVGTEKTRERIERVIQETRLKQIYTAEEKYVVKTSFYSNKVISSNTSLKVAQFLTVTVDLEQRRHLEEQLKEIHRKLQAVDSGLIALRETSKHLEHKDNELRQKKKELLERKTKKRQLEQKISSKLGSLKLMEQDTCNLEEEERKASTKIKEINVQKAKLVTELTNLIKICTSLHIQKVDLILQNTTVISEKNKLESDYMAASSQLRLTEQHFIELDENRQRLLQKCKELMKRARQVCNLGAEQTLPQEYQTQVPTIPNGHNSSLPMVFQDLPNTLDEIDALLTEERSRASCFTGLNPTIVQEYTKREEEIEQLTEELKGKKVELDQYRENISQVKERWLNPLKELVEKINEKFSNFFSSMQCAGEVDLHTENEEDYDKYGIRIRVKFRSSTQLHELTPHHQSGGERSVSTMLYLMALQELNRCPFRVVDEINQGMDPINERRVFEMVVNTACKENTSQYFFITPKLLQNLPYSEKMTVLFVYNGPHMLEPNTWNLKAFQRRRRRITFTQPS

Variant	effect of a mutation on the interaction
G506R	decreasing interaction

Variants of: B2
Settings: with smc6_schpo smc6, P53692

Variant	effect of a mutation on the interaction
G540R	decreasing interaction
